According to US20240368264A1 (SHANGHAI NOVAMAB BIOPHARMACEUTICALS, published 2024):

B1: Nb7-54 (VHH)
VHH: QVQLQESGGGSVQAGETLRLSCTASGFTFDDSDMGWYRQAPGNECELVSIISSDGMTYYADSVKGRFTISQDNAKNTVYLQMNSLKPEDTAVYYCAATKYSSDYDVAEDWRRGVCGDMDYWGKGTQVTVSS
notes: Camel nanobody before humanization
B2: Bi-HuNb10-63 (VHH)
chain: EVQLLESGGGLVQPGGSLRLSCTASGFTLDDSDMGWYRQAPGDECELVSTISSLGGTYYADSVKGRFTISHDNAKNTVYLQMNSLKPHDTAVYYCAPGTDRYSDCPNEYSVWGQGTLVTVSSGGGGSGGGGSGGGGSGGGGSEVQLLESGGGLVQPGGSLRLSCTASGFTLDDSDMGWYRQAPGDECELVSTISSLGGTYYADSVKGRFTISHDNAKNTVYLQMNSLKPHDTAVYYCAPGTDRYSDCPNEYSVWGQGTLVTVSS
notes: also called humanized bivalent antibody; bivalent single domain antibody
B3: Nb10-63 (VHH)
VHH: QVQLQESGGGSVQAGGSLRLSCTASGFTLDDSDMGWYRQAPGDECELVSTISSLGGTYYADSVKGRFTISHDNAKNTVYLQMNSLKPHDTAVYYCAPGTDRYSDCPNEYSVWGQGTQVTVSS
notes: as for B1
B4: Bi-HuNb5-31 (VHH)
chain: EVQLLESGGGLVQPGGSLRLSCTASGFTSGGSDMGWYRQAPGNECDLVSYISSDGSTYYADSVKGRFTISQDNAKNTVYLQMNSLKPEDTAVYYCAATDYGLGPPPSSTGQCYGMDYWGKGTLVTVSSGGGGSGGGGSGGGGSGGGGSEVQLLESGGGLVQPGGSLRLSCTASGFTSGGSDMGWYRQAPGNECDLVSYISSDGSTYYADSVKGRFTISQDNAKNTVYLQMNSLKPEDTAVYYCAATDYGLGPPPSSTGQCYGMDYWGKGTLVTVSS
notes: as for B2
B5: Nb5-31 (VHH)
VHH: QVQLQESGGGSVQAGGSLRLSCTASGFTSGGSDMGWYRQAPGNECDLVSYISSDGSTYYADSVKGRFTISQDNAKNTVYLQMNSLKPEDTAVYYCAATDYGLGPPPSSTGQCYGMDYWGKGTQVTVSS
notes: as for B1
B6: Bi-HuNb7-54 (VHH)
chain: EVQLLESGGGLVQPGETLRLSCTASGFTFDDSDMGWYRQAPGNECELVSIISSDGMTYYADSVKGRFTISQDNAKNTVYLQMNSLKPEDTAVYYCAATKYSSDYDVAEDWRRGVCGDMDYWGKGTLVTVSSGGGGSGGGGSGGGGSGGGGSEVQLLESGGGLVQPGETLRLSCTASGFTFDDSDMGWYRQAPGNECELVSIISSDGMTYYADSVKGRFTISQDNAKNTVYLQMNSLKPEDTAVYYCAATKYSSDYDVAEDWRRGVCGDMDYWGKGTLVTVSS
notes: as for B2

Columns and labels:
TSLP-Biotin protein = TSLP-Biotin protein (UniProt Q969D9 29-159, biotinylated (site not stated)); experiment: flow cytometry blocking assay: antibody diluted 2-fold from 20 ug/mL with TSLP-Biotin on HEK293F/TSLPR transient cells, SA-PE, MFI; blocked partner: TSLPR on the cells
Experimental: The above 31 purified antibodies were again subjected to flow cytometry blocking activity assay. […] Centrifuged again and discard supernatant, add 200 uL PBS per well to resuspend cells, flow cytometry was performed to detect PE signal of sample.

TSLP-Fc antigen = experiment: BLI (Fortebio): antibody captured on Protein A probe, TSLP-Fc antigen 2-fold from 20 nM, global fit
Experimental: The binding kinetics of 14 blocking TSLP nanobodies were measured by Bio-layer interferometry (BLI). For kinetic measurements, candidate antibodies were diluted to 5 ug/mL in PBST buffer, TSLP-Fc antigen diluted in PBST buffer in 2-fold gradients in six concentration gradients (2-fold gradient dilution from 20 nM), and set the instrument operating conditions: Temperature 30° C., Shake speed 1000 rpm. Antibodies were captured using a probe already encapsulated with Protein A, capture time 60 s; Binding of gradient diluted antigen, binding time 240 s; dissociation time 300 s; 10 mM glycine (pH 1.7) regenerated 2 times for 5 s each. Fortebio Analysis version 9.0 was used to perform the analysis, Global mode was fitted and the binding rate (Kon), dissociation rate (Kdis) and dissociation constant KD were calculated.

human TSLP factor = human TSLP factor (human, UniProt Q969D9 29-159); experiment: cell-based or functional assay
[1] = target: Human TSLP antigen protein (human, UniProt Q969D9 29-159); experiment: blocking ELISA: human TSLP coated, antibody dilutions with 0.02 ug/mL biotinylated TSLPR, SA-HRP, OD450; blocked partner: biotinylated TSLPR protein
Experimental: The above purified bivalent humanized antibodies were subjected to ELISA to detect blocking activity. […] After washing 5 times with PBST, 100 uL of TMB color-substrate solution was added and colour development at 37° C. for 10 min. The reaction was terminated by adding 2M H₂SO₄ 50 uL/well, and the absorption value was measured at 450 nm on an microplate reader.

| Binder | IC50 (read off the curve) (TSLP-Biotin protein) [µg/mL] | Kd (TSLP-Fc antigen) [pM] | koff (TSLP-Fc antigen) [s⁻¹] | kon (TSLP-Fc antigen) [M⁻¹ s⁻¹] | IC50 of inhibition of hTSLP-induced pSTAT5 (PE MFI, flow cytometry) in BaF3/TSLPR-IL7R cells (human TSLP factor) [ug/ml] | IC50 [1] [µg/mL] |
| --- | --- | --- | --- | --- | --- | --- |
| B1 | ~0.2 | 226 | 0.000588 | 2.61e+06 |  |  |
| B2 |  |  |  |  | 0.472 | 0.0824 |
| B3 |  | 94.5 | 0.000263 | 2.78e+06 |  |  |
| B4 |  |  |  |  | 0.0797 | 0.0759 |
| B5 |  | 115 | 0.000231 | 2.02e+06 |  |  |
| B6 |  |  |  |  | 0.0198 | 0.141 |
